From patent US20140328849A1 (Genentech, published 2014) come the findings set out here.

For test [1], the target named is T1, rhesus monkey CRTh2 (rhesus monkey, UniProt Q9Y5Y4 1-395 (human entry)).
T1 construct: also called rhesus CRTh2
T1 chain: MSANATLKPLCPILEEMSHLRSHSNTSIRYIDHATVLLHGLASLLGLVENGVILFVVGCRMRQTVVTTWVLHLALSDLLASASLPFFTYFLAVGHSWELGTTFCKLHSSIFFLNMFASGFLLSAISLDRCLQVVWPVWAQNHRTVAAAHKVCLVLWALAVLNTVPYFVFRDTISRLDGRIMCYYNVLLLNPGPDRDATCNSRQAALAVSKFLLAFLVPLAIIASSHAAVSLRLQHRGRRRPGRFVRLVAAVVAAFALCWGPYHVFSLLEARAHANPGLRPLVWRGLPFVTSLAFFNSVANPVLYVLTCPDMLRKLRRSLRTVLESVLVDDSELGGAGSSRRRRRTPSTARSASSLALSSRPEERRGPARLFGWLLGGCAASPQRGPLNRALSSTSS
Kind of test: flow cytometry on 293 cells expressing rhesus CRTh2. Background: A flow cytometer gives signals particle by particle.

Test [2] addresses T2, cynomolgus monkey CRTh2 (cynomolgus monkey, UniProt Q9Y5Y4 1-395 (human entry)).
T2 construct: also called cyno CRTh2; cynomologous CRTh2
T2 chain: T1 chain with P193S, P276R, R360H
Kind of test: flow cytometry on 300.19 cells expressing amino-terminal Flag-tagged cynomolgus CRTh2 [Cont.].

Test [3] concerns the target T1, rhesus monkey CRTh2. Kind of test: flow cytometry on 300.19 cells expressing amino-terminal Flag-tagged rhesus CRTh2.

Where a chain is given by its changes, count along the chain named.

B1: mouse anti-human CRTh2 monoclonal antibody 19A2 (antibody, mouse IgG2a, V domains shown)
VH: EVKLVESGGGLVQPGGSLKLSCAASGFTFSSYSMSWVRQTPEKRLEWVAYISNGGSTTYYPGTVEGRFTISRDNAKNTLFLQMSSLRSKDTAMYYCARHRTNWDFDYWGQGTTLTVSS
VL: DIQMTQSPASLSVSVGETVTITCRASENIYSNLAWYQQKQGKSPQLVVYAATQLADGVPSRFSGSGSGTQYSLKINSLQSEDFGSYYCQHFWITPWTFGGGTKLEIK
notes: also called mu19A2; Mu19A2
Take B1: the binding result in test [1] is “no binding (tested: 20 ug/ml)”.

B2: mouse anti-human CRTh2 monoclonal antibody 8B1 (antibody, V domains shown)
VH: QVQLQQSGTGLVRPGTSVRVSCKASGYAFITYLIEWIKQRPGQGLEWIGVIHPGSGNSHYNEKFKGKATLTADTSSSTAYMQLSSLTSGDSAVYFCARSGSSSFDYYAMDFWGQGTSVTVSS
VL: DIQMTQSPSSLSASLGERVSLTCRASQEISGYFSWLQQKPDGTIKRLIYAASTLDSGVPKRFSGSRSGSDYSLTISSLESEDFADYYCLQYANYPYTFGGGTKLEIK
notes: also called mu8B1; Mab 8B1
B2: the binding result in test [2] is on record as “no binding (tested: 1 ug/ml)”; in test [3] it was “no binding (tested: 5 ug/ml)”.
